Consider three substances from PMC5473941.

Assay [1] deals with microtubules polymerised from tubulin (biotinylated, Alexa 647-labelled, taxol-stabilised) (UniProt P02550). The experiment in a line: single-molecule TIRF microscopy; biotinylated, Alexa 647-labelled, taxol-stabilised microtubules held on PLL-PEG-biotin/streptavidin glass; TMR-dynein at 0.29 and 0.58 nM in TAB (25 mM HEPES pH 7.2, 5 mM MgSO4, 1 mM EGTA, 1 mM DTT) with α-casein, 25 mM KCl and MgATP; room temperature; Kd estimated as Koff (reciprocal of the dwell time) over Kon (binding rate) times 802 binding sites per μm.

The target in assay [2] is human cytoplasmic dynein-1 heavy chain, wild type, as a subunit of the dynein complex (human) (UniProt Q14204). The experiment in a line: electron microscopy of single particles; freshly purified protein produced in insect cells; how the proportion was counted is not told.
Assay [3] has the same target. The experiment in a line: negative stain EM with 2D classification; dynein at about 0.05 mg/ml in GF150, uranyl acetate; particles sorted into phi, open or ambiguous classes; mean and SEM of 9 draws of 25 micrographs.

Some results are limits rather than exact numbers.

The term Kd denotes the free concentration of one partner at which half of the binding sites on the other are occupied at equilibrium, for simple one-to-one binding. On to “full-length human cytoplasmic dynein-1 complex with the phi-interface mutations K1610E and R1567E in the heavy chain (from UniProt Q14204 1-4646; Q13409 1-638; O43237 1-492; Q9NP97 1-96; P63167 1-89; P63172 1-113)”, for which the Kd in assay [1] was 5.22 µM.

Regarding “full-length human cytoplasmic dynein-1 complex, wild type (from UniProt Q14204 1-4646; Q13409 1-638; O43237 1-492; Q9NP97 1-96; P63167 1-89; P63172 1-113)”, the Kd in assay [1] was 16.4 µM.

For “human cytoplasmic dynein-1 heavy chain, wild type, as a subunit of the dynein complex, Q14204 1-4646”, the percent of molecules in the phi-particle (motor domains self-dimerised) in assay [2] is more than 85%. In addition, in assay [3], the percent of molecules in the open form (motor domains apart) came out at 22% and the percent of molecules in the phi-particle (motor domains self-dimerised) was found to be 75%.
